# Test results as given in IntAct's records for PubMed 22624718.
# B1: Leukocyte antigen CD37 (Homo sapiens), P11049 (parent)
# chain: MSAQESCLSLIKYFLFVFNLFFFVLGSLIFCFGIWILIDKTSFVSFVGLAFVPLQIWSKVLAISGIFTMGIALLGCVGALKELRCLLGLYFGMLLLLFATQITLGILISTQRAQLERSLRDVVEKTIQKYGTNPEETAAEESWDYVQFQLRCCGWHYPQDWFQVLILRGNGSEAHRVPCSCYNLSATNDSTILDKVILPQLSRLGHLARSRHSADICAVPAESHIYREGCAQGLQKWLHNNLISIVGICLGVGLLELGFMTLSIFLCRNLDHVYNRLARYR
# Variants of: B1
# Details: with lyn_human LYN
row,effect of a mutation on the interaction,Variant
1,disrupting interaction,MSAQESCLSLIKFFLFVFNLFFFVLGSLIFCFGIWILIDKTSFVSFVGLAFVPLQIWSKVLAISGIFTMGIALLGCVGALKELRCLLGLYFGMLLLLFATQITLGILISTQRAQLERSLRDVVEKTIQKYGTNPEETAAEESWDYVQFQLRCCGWHYPQDWFQVLILRGNGSEAHRVPCSCYNLSATNDSTILDKVILPQLSRLGHLARSRHSADICAVPAESHIYREGCAQGLQKWLHNNLISIVGICLGVGLLELGFMTLSIFLCRNLDHVYNRLARYR [Y13F]

# Variants of: B1
# Details: with ptn6_human PTPN6, P29350
# Sequence of ptn6_human PTPN6, P29350 (P29350 whole entry): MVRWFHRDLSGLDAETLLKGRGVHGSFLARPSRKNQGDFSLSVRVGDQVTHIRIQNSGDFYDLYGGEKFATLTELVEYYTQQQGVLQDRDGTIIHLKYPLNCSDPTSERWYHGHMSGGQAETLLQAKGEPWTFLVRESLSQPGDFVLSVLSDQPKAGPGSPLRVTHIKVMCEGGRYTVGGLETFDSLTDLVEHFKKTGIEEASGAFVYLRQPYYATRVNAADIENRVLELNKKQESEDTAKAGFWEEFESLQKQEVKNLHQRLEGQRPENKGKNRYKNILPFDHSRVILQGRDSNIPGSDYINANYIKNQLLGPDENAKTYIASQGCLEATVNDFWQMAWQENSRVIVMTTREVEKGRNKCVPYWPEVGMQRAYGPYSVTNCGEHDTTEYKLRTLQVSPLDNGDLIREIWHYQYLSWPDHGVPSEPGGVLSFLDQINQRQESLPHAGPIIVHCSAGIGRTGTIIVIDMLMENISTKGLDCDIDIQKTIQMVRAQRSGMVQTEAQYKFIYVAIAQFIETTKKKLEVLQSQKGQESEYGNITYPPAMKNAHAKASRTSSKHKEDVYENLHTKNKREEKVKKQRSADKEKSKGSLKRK
row,effect of a mutation on the interaction,Variant
1,disrupting interaction,MSAQESCLSLIKFFLFVFNLFFFVLGSLIFCFGIWILIDKTSFVSFVGLAFVPLQIWSKVLAISGIFTMGIALLGCVGALKELRCLLGLYFGMLLLLFATQITLGILISTQRAQLERSLRDVVEKTIQKYGTNPEETAAEESWDYVQFQLRCCGWHYPQDWFQVLILRGNGSEAHRVPCSCYNLSATNDSTILDKVILPQLSRLGHLARSRHSADICAVPAESHIYREGCAQGLQKWLHNNLISIVGICLGVGLLELGFMTLSIFLCRNLDHVYNRLARYR [Y13F]
